Measured values published in patent US20190373867A1.

How the values were obtained:
[1] = molecular target: endogenous mouse SIRPα of wildtype C57BL/6 mice (NP_031573.2) (mouse (C57BL/6)) (UniProt P97797); assay: flow cytometry; CD47 protein on peritoneal cavity cells of wildtype C57BL/6 mice, detected with anti-CD47 human antibody and AF647-Anti-hIgG
[2] = molecular target: endogenous mouse SIRPα of wildtype BALB/c mice (mouse (BALB/c)) (UniProt P97797); assay: flow cytometry; CD47 protein on peritoneal cavity cells of wildtype BALB/c mice, detected with anti-CD47 human antibody and AF647-Anti-hIgG

UniProt P97797, sequence (P97797 other isoform, or with tags, fused parts or gaps): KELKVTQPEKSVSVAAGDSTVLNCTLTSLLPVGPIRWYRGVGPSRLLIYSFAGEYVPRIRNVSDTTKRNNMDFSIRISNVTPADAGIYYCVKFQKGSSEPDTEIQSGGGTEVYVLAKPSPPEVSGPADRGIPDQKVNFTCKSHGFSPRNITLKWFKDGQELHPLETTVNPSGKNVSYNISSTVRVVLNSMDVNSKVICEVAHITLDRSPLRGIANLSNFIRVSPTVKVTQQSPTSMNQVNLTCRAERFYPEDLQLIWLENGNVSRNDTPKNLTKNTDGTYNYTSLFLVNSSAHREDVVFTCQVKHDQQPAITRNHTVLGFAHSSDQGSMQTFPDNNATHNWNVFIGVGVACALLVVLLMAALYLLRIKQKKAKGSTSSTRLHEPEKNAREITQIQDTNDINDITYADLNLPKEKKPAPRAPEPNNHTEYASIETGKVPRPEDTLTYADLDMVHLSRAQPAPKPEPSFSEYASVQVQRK

## mouse CD47 proteins (added to peritoneal cavity cells, Example 16) (ligand)
[1]
  geometric mean of flow cytometry signal: 100
[2]
  geometric mean of flow cytometry signal: 100
